# Test: soluble on expression in E. coli; label from the status in PepcDB or PDB records
row,Sequence,soluble on expression in E. coli
1,MGSDKIHHHHHHMKVLVTGATGFIGRQVVHRLREAGAELRLASRHPERLGPGQDAMRMPDVDAPTAAFLALARGVTDVVHCAGLNNDEGNATEADFRAANAELSARLAQAAAEQASGRFIQLSSIRAVIGARVSATIDEDTIPDPQCAYGRSKREAEIRVLDAYASHGRSDATVLRLPPVYGTGMQGNLATLMRMADTGLPLPTGALTGTRSLLSAQSTAGAIWHLLSLSGRLRPIHVASDVPPVSIADIVDAFRDGFGRPTRLMAVPAGPLRIAAILLGKRTSWDSLTASQICDPSLLVSEGWLPETGTLERLAEIARLGDAQSPPLR,not soluble
2,MSGNQNGENVQQKKEKMCSIGETIYTWTQNKHATTYVGTYTKAFFSGEVCREIREHDEFLGMSFSSFF,not soluble
3,MSLVEDVKGVGFKTADKIASSLGIEADSPNRFRAALMHEVNTHSQSTGDTYIEAKNLLEMTIDLLEEARNVEVNPSAVAEEINGLIVDGKVQQEGTKIFENSLYFAEDGIRKSLTALTNRSGKDFADEKLLTVLAEVERDLEITYDDLQKQAIIGAMNQQFFILTGGPGTGKTTIINGFIETYARLHQLDLDPDHYNDDVFPILLAAPTGRASRRMNELTGLPAATIHRHLGLGQDEAEDALGNELSGALLIVDEFSMVDTWLANKLFQAIPGSMKVLLVGDADQLPSVGPGQIFADLLKIPEIPSVKLDKIFRQGDDSTITDLAHHIKDGQLPSDFTAKKPDRSYFEVSANFVPQMVEQIASAWQKRGNNPFELQILAPMYKGMAGINAMNVLLQNLFNPLNDRLEFALGDMKFREGDKVLHLVNDAEANVFNGDLGQIVELIAAKYTDSKQDELVMDFDGQELTYPRAEWYKITLAYAMSIHKSQGSEFSTVIVPMVSSYSRMLERNLLYTAITRAKQSLILLGEERAFAQAVAREGANRKTYLIERFMGENEGHHHHHH,soluble
4,MSLEQLLGRGEAAPSVRYDETIQKIIPIIKNSIRLPDDLRDRKTIWEFIRPQLMGIKALEAGFSMALWDWWGQKIGRPIFELLSVKTKMLPQTSYTISIGGFDELGAKLEEAKPYSILKVKLGTPKMDKEIITEIRRHTEKLIRVDANEGWTEDVALEMSFWLADRNIEFIEQPFPAKDLNSSIELKKKSPLEIFADENSLNSNDIKPIRHAFHGINIKLMKCGSLEEGKKMIDVARENGLKVMLGCMVETSVGITSASHLAGEVDFVDLDGNLLIKNDPYSGVLVNNGRLVLQKGNGSGVKLSSDYRNILEEGHHHHHH,soluble
5,MAKRKICQAMAVVLALGMCTTGLTGCGNEKRADGKTEIEVVSYKPEAVKAFEKIEKQFNETHDDIHLTISSPNEAMTILKTRFIREDYPDIIAIGGDINYSNFLDADLFEDISDLDAVDNVKEAYLDMDKELEFIPKDGTYALPYAANAAGVLYNKDMFAENGWKVPTTWSEFTALCDEIKESGTLPLYLGFKDTWTCLAPWNALAVGLCDSDTCNQVNMGNTTFEEAYSPVADKIRTLLDYAEDNPYAYSYNDACTAFARGESAMYTIGSYAIPQIKSVNPDMNIGSFTFPANDNEADNVLNSGIDLQLSVMKACKNKEAAYEVLEYLYSDETIQTYLDDQGGIACKEGDFAIPDTLEDMQEYIKDNRMSDYQDHHYPSEMSVDAMIQTYLLDTGDNAKEKFLKKFDSDWERYNRDLIREVQDYQKEQEDAK,not soluble
6,MSYRKKLTSPEDAVGLIRSGMRVFVSGNAATPTPLLKALAARKDELENVELVHLLQMGEDPFASLEMEGHFRRRSLFVGPADREAVNQGRADYVPVMLHQVPWLFKRGILPLDAAIVQVSPPDEHGFCSLGVEVIATKAAVEAAPIVIAMVNPRMPRTLGDTFVHVSRFTAIVEVDWPLPELKREGFGEVERRIGEHVAGLIEDGATLQMGIGAIPDAVLASLEGRRDLGVHTEMISDGVLEAWEKGLITGAKKSLHPGKIVGTFVLGSERLYRFVHDNPLFELHPADYVNDPFVIAQNRKMVAINSAIEVDLTGQVVADSIGTRIYSGFGGQLDFIRGAARSEGGKPIIALPSTAKGQSRIVPFLKPGAGVVTTRADVHYVVTEWGVAELFGRSLRERAKALIAIAHPDFREALLQGAWERGLLPRGYPGVDLKGLEEKRGRP,soluble
7,MNALLRFTLGLCSMTLLAGCGENIDHSKIRSSGFVYCGESAPTTFNPQLADNDITSDALGPQIYNTLLTIDPETHLPVASLASSWTVNSTGLEYVFKLRPDVAFQTTPWFSPTRPLNADDVVFSFRRIIDPTNPYHKVGQTQYPWFKGIDFQNLLVDVSALDDLTVKFVLSRPDNSFLSNIATSHAVILSLEYANQLIIDDEKEKLDNLPLGTGPFYLAEYHPRDLIRLKRHPQYWEGAAKVEQVVFDISQRGTGMLAKLLRNECDVLNAPISSQLPAIEKNPDIVLQTTPAMNVAFIAVNTQHPALNDNRVRKALNFAINRQNILDSVYYGTGSIAFTILPPTSWAYQQDTAQIRYDRNYAQALLREAGFATGLELTMSVPVEPKAYNPSPRKTAELIQANLADIGVTLRLISEDRSERQELSIRNNIDLYLSGWTGDTGDPDNFLRPLLSCDSNRAGLNVSMWCDSDFDFLLDLALEANKPRYRLNLYHQAQNILNQEFPVIPLAHGIQFTAYSKSLTGIRISPFNVQPFNTVERVAE,not soluble
8,MAHHHHHHMSHPKMKLVRRARKSIRERRMKACLKDLSSNLEKVEMRVFRQQKQKRQQQQRKGAGNHITVPPDVLRGVMNPELYHIECRLHQEACMPPPPPYEGYSQRERCDGARRRIGFVEFVTIAEMVRLGAMPGTPARVGI,not soluble
9,MGSDKIHHHHHHMSVMFDPDTAIYPFPPKPTPLSIDEKAYYREKIKRLLKERNAVMVAHYYTDPEIQQLAEETGGCISDSLEMARFGAKHPASTLLVAGVRFMGETAKILSPEKTILMPTLQAECSLDLGCPVEEFNAFCDAHPDRTVVVYANTSAAVKARADWVVTSSIAVELIDHLDSLGEKIIWAPDKHLGRYVQKQTGGDILCWQGACIVHDEFKTQALTRLQEEYPDAAILVHPESPQAIVDMADAVGSTSQLIAAAKTLPHQRLIVATDRGIFYKMQQAVPDKELLEAPTAGEGATCRSCAHCPWMAMNGLQAIAEALEQEGSNHEVHVDERLRERALVPLNRMLDFAATLRG,not soluble
10,MGSDKIHHHHHHMEKQVATSIFESLSSGLRLDVFRLLVKKGPDGMVAGEIANALDVPPANLSFHLKALSQARLVTVEQEGRFQRYRADIPLMLDLIAYLTDECCTGSPAKCVEKVAASNCAKELLPPPVTHSNESDNMNILFLCTGNSCRSILAEAVFNHLAPTGWKAMSAGSQPTGTVHPRSLALLAREGIDTNGLHSKSWDNLPQVPDVVITVCSNAAGETCPAYLGAVLRAHWGVDDPAHATGTEAEIEAAFTAAYRILRRRIEAFLALPLVELARDRTRLKAELDRIGALSA,not soluble
11,MAFWQSKTLTEMTSQEWESLCDGCGKCCLNKLIDDETEELYYTNAACLLLDHQTTSCQHYSDRFRYVPQCTVITAQNVHELTWLPDSCAYRRLAAGRALPSWHPLLTGSKDAMHLAGMSIQGKVVDERRVKDIEDHIVLWPLKDLD,soluble
12,MSLTLAFAYVRASTIEEVRQGSNERQKEAIRQYTYQKGYELEIFEDKAKSGRNTLRPEFERMLKSLDRRPQIVIVSKIDRFARSLSDLLKTLEYLDQNGVGFVSVNDPGIDTTTPNGRLLLQILGAFAEFERNMINSRTKAGREQAQSKGVKFGRPPLKTRNGSFIDRRKVMELKQKGLSARAIAKSLECSTTPILRILRENEGHHHHHH,soluble
13,MGSDKIHHHHHHMDHQYTTLERNRYFEVLGGLNVENRGDNKVAMLSELDMTSAQALRTSVDRQTGIKPSYTAIVAKAVSIALREHPYANRMAVERLFWKRILQLHDVHMTIAVERDRPGIEQAVFAGTIRDTDKLDVAAITKELQSLAQSTEETNERWRLLKRMVETLPPALARRLISIPRWLPDQWIKHRGGSVMISSPAKYGVDMMVANWPWPIGYSFGLVKDRVIAVEGAAQVRPTMVLTMSFDRRLMGGAPAARFFRTVCEHIEHAERDMALPVNIPS,not soluble
14,MPVNSILGVFAKSPIKPLQEHMDKVYDCASLLVPFFEATITGNWDDAVQIRKQISLAEKQGDSLKREIRLTLPSGLFMPVERTDLLELLTQQDKIANKAKDISGRVIGRQLLIPQALQVPFIAYLQRCIDAVGLAQQVINELDDLLEAGFRGREVDFVAKMINELDIIEEDTDDLQIQLRRQLFALESELNPVDVMFLYKTIEWVGGLADLAERVGSRLELMLARVLEHHHHHH,soluble
15,MGPIVSPALHAVQASRFEDVRQARSATGTRTDEGLRRSAGGRYAGASSRGTYQSGAGRVTNPLRRSKVSESLSIHHDVGGHQFETTVDGHRAYLAYMDLGKQTLDIYRTFVPDSLRGRGIAAALTEHALQYADRMGYSVIPSCSYVERYIERRQRQADPAALEHHHHHH,soluble
16,MLTFVSPVFGAPKKRKWFSKLSGKQLCCFRCVSCLQVEQPSRSHPNYWRNIAREVNKTLKEHSLEANNPINVTDEDSSVFVDTTTDEREEGGPTFIQQSSRVQLDSAEISHSNSMTTDSHSLYQNNSPNSTGMEEEPSDYSVQFSTSWNPNTSWLQFPDLVESADIRRKTQEISKHQKEDVFKYYIDSENNLRPFHDAISPMHIFSKESETQTVSEPSAWENWHQLSQKGNEDSSSLDESLDDEWSEIDRWRPVAVELEGYNPKLTEDTSEEVRIEKNKLSKRREAVAWQKWFSTQQYNLSSELWERRIGVTGKDCDKNTSIYKQWLADMEQGLEP,not soluble
17,MPLTLTDRYRGSLLGLACGDALGTSVEFKPRGSFPPVTDLLGGGPFNLKAGQWTDDTSMALCLGESLLRKDGFDPADQMGRYLNWWQWGYLSATGECFDIGMTVRQALADYQEHGQPLAGSSDPQTAGNGSLMRLAPVVLFHYPDLAQVREFAGASSRTTHGAAEAIECCQLLAGLIAKALDGASKQQLQRLDAQGFRESKVAALAQGNYLDKTRDQIRGNGYCVDSLEAALWCFQHSDSYAEAVLAAANLGDDADTTAAIVGQLAGAFYGAQGIPPHWLAKLHMGEEIQAMADDLLAAARRRAPARPLHGSCLCKAVQYRVDRLDMPIGHCHCQTCRKAHAAAFASTAGVMREHFQWTQGQERLSTYESSPGKLRHFCSVCGSHLLAERPGQPHVILRVATLDDDPGQTPQVHIWTSHDVPWLADEALQRWPEWQPSRGLEHHHHHH,not soluble
18,MSLKTIAINQYGSADEFTMVDMPTTEPQADEVQVAIHAFSLNPMDIAGRMGALSSPFTDLWAFPLVLGWDFAGVITKMGKAVTGFNIGDAVFGSAAPAHAANNGTYGEFITVNTKELAHLPAGLSFDQAAALPIAGLTAYYGMKHNLKLQSGQKILVQGGAGGVGLFAIQIAKAFGAYVATTASANHRDLLTRLGADEVIDYHETDPAAVLHDYDAVFDTVGDIDTGLKVLKADGQLATIAGQPTDEQQHDQQKKVAFQFTQGSSQDLADLAQLVVSGQVKLTVATLPFSVANVIKGHRSIESRHTTGKIVIHVTEGHHHHHH,not soluble
19,MGSDKIHHHHHHMRYPEGMALQNKFPILWDCFLQRINDALKATTQEELGRRLGVGKSAITKWRHGSTRGADLQDFLRYCDVLGIDFCGIINGTPTPTYSPSPFEIALTGVLDSFLSVHNLTHEKAASSLWPETANGAAKLGSILTAKEPLTPEVLMQLCLLMEEDPGKLLRLARERVQPEGEQISGNAKSA,not soluble
20,ASMRPVRLMKVFVTRRIPAEGRVALARAADCEVEQWDSDEPIPAKELERGVAGAHGLLCLLSDHVDKRILDAAGANLKVISTMSVGIDHLALDEIKKRGIRVGYTPDVLTDTTAELAVSLLLTTCRRLPEAIEEVKNGGWTSWKPLWLCGYGLTQSTVGIIGLGRIGQAIARRLKPFGVQRFLYTGRQPRPEEAAEFQAEFVSTPELAAQSDFIVVACSLTPATEGLCNKDFFQKMKETAVFINISRGDVVNQDDLYQALASGKIAAAGLDVTSPEPLPTNHPLLTLKNCVILPHIGSATHRTRNTMSLLAANNLLAGLRGEPMPSELKL,soluble
